This series concerns the molecule itself. As to the kind of experiment: SEC; untagged proteins after on-column TEV cleavage, Superdex 200-HR, 50 mM Tris/HCl pH 8.0, 100 mM NaCl, 2 mM MgCl2, 0.3 mL/min; calibrated with marker proteins.

B1: untagged human Fhit (natural protein)
chain: not shown
notes: Fhit (fragile histidine triad), human, 147 amino acids, ~17 kDa; also called fragile histidine triad
Turning to B1, the “stoichiometry N” value amounted to 2.

For the origin of these results see article PMC9913352, “The Rosetta Stone Hypothesis-Based Interaction of the Tumor Suppressor Proteins Nit1 and Fhit” (Cells, 2023).
